The values below come from US20250268994A1.

This test has as its target delta (India) variant S glycoprotein of SARS-CoV-2 (SARS-CoV-2) (UniProt P0DTC2). As to the kind of experiment: cell-based or functional assay.
For “hsACE2 N90D T92A (variant polypeptide encoded by SEQ ID NO: 5) (from UniProt Q9BYF1 18-740) (receptor)”, the Preliminary Estimate of IC50 (nM), RVP neutralization was 2.33 nM.

Consider “hsACE2 H374N H378N (variant polypeptide encoded by SEQ ID NO: 6) (from UniProt Q9BYF1 18-740) (receptor)”, for which the Preliminary Estimate of IC50 (nM), RVP neutralization was 8.29 nM. Turning to “hsACE2 N90D R273A (variant polypeptide encoded by SEQ ID NO: 4) (from UniProt Q9BYF1 18-740) (receptor)”, the Preliminary Estimate of IC50 (nM), RVP neutralization is 2.74 nM.
